Experimental data: paper doi:10.1101/2022.03.10.483744 (bioRxiv, 2022)
Residue numbers refer to the chain shown, from its start. Numbers in names are those of the source. Where “and” joins values, the source holds several entries; their conditions need not be identical. Identical values can stand only once.

Key:
[1] = molecular target: CLPB-NBD (NBD-only variant, N-terminal ANK domain truncated) (human) (UniProt Q9H078); test: cryo-EM 2D classification
CLPB^isoform1 (human) = test: cryo-EM 2D classification
CLPB-NBD^E425Q (human) = CLPB-NBD^E425Q (human) (UniProt Q9H078); test: cryo-EM structure
cryo-EM structure = molecular target: the molecule itself; test: cryo-EM structure
[2] = molecular target: the molecule itself; test: SEC + other: negative-staining EM
SEC = molecular target: the molecule itself; test: SEC

CLPB-NBD (NBD-only variant, N-terminal ANK domain truncated) (from UniProt Q9H078-2 1-677) (domain or fragment)
stoichiometry N [1]: 6 and 7

CLPB^isoform1 (natural protein)
stoichiometry N (CLPB^isoform1 (human)): 14

CLPB-NBD^E425Q (from UniProt Q9H078-2 1-677) (domain or fragment)
stoichiometry N (CLPB-NBD^E425Q (human)): 6 and 7 and 9

B1: CLPB-N127 (human CLPB isoform 2 starting from the PARL cleavage site) (natural protein)
chain: YSKSPSNKDAALLEAARANNMQEVSRLLSEGADVNAKHRLGWTALMVAAINRNNSVVQVLLAAGADPNLGDDFSSVYKTAKEQGIHSLEVLITREDDFNNRLNNRASFKGCTALHYAVLADDYRTVKELLDGGANPLQRNEMGHTPLDYAREGEVMKLLRTSEAKYQEKQRKREAEERRRFPLEQRLKEHIIGQESAIATVGAAIRRKENGWYDEEHPLVFLFLGSSGIGKTELAKQTAKYMHKDAKKGFIRLDMSEFQERHEVAKFIGSPPGYVGHEEGGQLTKKLKQCPNAVVLFDEVDKAHPDVLTIMLQLFDEGRLTDGKGKTIDCKDAIFIMTSNVASDEIAQHALQLRQEALEMSRNRIAENLGDVQISDKITISKNFKENVIRPILKAHFRRDEFLGRINEIVYFLPFCHSELIQLVNKELNFWAKRAKQRHNITLLWDREVADVLVDGYNVHYGARSIKHEVERRVVNQLAAAYEQDLLPGGCTLRITVEDSDKQLLKSPELPSPQAEKRLPKLRLEIIDKDSKTRRLDIRAPLHPEKVCNTI
stoichiometry N (cryo-EM structure): 14

B2: CLPB^R227E (natural protein)
chain: B1 chain with R101E
binding result [2]: binds

B3: CLPB^E425Q (Walker B mutant of CLPB-N127) (natural protein)
chain: B1 chain with E299Q
stoichiometry N (cryo-EM structure): 12

B4: CLPB^R178E (natural protein)
chain: B1 chain with R52E
binding result [2]: binds

B5: CLPB^Δ201-232 (natural protein)
chain: YSKSPSNKDAALLEAARANNMQEVSRLLSEGADVNAKHRLGWTALMVAAINRNNSVVQVLLAAGADPNLGDDFSSFKGCTALHYAVLADDYRTVKELLDGGANPLQRNEMGHTPLDYAREGEVMKLLRTSEAKYQEKQRKREAEERRRFPLEQRLKEHIIGQESAIATVGAAIRRKENGWYDEEHPLVFLFLGSSGIGKTELAKQTAKYMHKDAKKGFIRLDMSEFQERHEVAKFIGSPPGYVGHEEGGQLTKKLKQCPNAVVLFDEVDKAHPDVLTIMLQLFDEGRLTDGKGKTIDCKDAIFIMTSNVASDEIAQHALQLRQEALEMSRNRIAENLGDVQISDKITISKNFKENVIRPILKAHFRRDEFLGRINEIVYFLPFCHSELIQLVNKELNFWAKRAKQRHNITLLWDREVADVLVDGYNVHYGARSIKHEVERRVVNQLAAAYEQDLLPGGCTLRITVEDSDKQLLKSPELPSPQAEKRLPKLRLEIIDKDSKTRRLDIRAPLHPEKVCNTI
binding result (SEC): binds
